Read-outs that look alike come from different tables or passages of the source.
What was measured:
Experiment in all cases: EMSA
Sen1 HD wt [1] = target: T1, Sen1 HD wt (Saccharomyces cerevisiae, UniProt Q00416 1095-1905)
T1 sequence: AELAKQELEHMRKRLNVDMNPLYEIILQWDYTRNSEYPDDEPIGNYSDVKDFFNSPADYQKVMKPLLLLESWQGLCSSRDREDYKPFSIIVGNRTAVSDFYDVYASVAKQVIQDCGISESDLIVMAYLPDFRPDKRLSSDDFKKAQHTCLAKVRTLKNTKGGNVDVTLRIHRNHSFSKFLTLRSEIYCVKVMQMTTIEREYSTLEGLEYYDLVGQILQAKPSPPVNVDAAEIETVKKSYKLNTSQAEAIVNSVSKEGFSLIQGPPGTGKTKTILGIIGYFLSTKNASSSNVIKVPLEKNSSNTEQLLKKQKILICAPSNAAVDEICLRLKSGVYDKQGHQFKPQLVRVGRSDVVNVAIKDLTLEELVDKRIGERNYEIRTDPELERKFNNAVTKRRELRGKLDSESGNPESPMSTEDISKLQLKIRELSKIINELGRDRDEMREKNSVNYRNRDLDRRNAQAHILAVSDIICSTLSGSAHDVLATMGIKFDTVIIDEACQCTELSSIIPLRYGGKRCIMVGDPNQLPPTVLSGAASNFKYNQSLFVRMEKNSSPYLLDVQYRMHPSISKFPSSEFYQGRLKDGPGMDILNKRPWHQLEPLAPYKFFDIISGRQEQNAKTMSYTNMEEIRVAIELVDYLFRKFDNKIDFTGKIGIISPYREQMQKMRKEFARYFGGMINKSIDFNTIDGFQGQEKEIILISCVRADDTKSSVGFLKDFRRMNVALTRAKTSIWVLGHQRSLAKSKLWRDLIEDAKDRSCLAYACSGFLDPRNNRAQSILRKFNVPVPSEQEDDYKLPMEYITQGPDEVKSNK

Sen1 HD T1623V [2] = target: T2, Sen1 HD T1623V (Saccharomyces cerevisiae, UniProt Q00416 1095-1905, T1623V)
T2 sequence: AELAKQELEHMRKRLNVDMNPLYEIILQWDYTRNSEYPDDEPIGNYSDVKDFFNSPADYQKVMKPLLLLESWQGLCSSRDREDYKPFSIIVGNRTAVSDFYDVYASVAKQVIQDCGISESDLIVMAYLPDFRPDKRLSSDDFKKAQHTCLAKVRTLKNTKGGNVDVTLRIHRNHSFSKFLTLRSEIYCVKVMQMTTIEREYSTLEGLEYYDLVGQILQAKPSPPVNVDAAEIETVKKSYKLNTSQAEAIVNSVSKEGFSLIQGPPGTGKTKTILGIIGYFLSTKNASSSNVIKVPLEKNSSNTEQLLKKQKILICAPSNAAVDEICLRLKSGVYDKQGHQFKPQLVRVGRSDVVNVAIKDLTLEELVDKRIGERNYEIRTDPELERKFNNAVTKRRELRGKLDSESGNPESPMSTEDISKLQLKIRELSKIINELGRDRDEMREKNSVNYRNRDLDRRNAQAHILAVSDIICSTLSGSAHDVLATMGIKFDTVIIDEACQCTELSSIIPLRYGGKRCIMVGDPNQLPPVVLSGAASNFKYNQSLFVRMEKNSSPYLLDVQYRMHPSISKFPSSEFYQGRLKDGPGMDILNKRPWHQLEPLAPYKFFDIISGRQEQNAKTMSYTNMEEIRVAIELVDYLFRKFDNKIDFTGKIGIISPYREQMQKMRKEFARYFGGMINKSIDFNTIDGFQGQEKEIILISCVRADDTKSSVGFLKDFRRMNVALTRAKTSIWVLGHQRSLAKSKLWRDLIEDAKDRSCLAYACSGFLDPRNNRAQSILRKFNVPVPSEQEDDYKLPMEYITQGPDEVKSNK

Sen1 HD T1623E = target: T3, Sen1 HD T1623E (Saccharomyces cerevisiae, UniProt Q00416 1095-1905, T1623E)
T3 sequence: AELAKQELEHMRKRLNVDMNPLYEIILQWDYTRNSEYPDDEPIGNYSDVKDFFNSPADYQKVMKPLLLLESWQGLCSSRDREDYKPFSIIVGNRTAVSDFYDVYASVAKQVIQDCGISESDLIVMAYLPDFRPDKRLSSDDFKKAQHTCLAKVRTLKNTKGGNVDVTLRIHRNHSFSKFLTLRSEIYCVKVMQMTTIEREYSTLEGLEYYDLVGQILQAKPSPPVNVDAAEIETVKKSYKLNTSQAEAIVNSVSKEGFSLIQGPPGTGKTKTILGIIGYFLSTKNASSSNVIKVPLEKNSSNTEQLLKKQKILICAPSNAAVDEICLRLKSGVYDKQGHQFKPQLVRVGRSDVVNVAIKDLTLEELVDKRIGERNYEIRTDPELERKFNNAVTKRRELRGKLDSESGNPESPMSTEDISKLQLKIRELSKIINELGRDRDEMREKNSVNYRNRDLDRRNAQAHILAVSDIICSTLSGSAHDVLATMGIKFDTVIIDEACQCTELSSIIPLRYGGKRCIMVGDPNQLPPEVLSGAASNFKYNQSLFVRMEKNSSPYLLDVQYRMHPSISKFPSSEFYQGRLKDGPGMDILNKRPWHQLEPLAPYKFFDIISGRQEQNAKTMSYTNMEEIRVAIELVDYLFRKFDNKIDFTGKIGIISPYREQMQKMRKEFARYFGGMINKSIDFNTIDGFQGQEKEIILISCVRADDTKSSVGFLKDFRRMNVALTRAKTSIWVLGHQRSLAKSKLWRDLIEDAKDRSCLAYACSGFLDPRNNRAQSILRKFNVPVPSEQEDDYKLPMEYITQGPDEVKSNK

Sen1 HD wt [3] = target: T1, Sen1 HD wt; remark: listed apart in the source
Sen1 HD T1623V [4] = target: T2, Sen1 HD T1623V; remark: listed apart in the source

UUCAUUUCAGACCAGCACCCACUCACUACAACUCACGACCAGGC (ssRNA) [DL3508 (called 40-mer RNA; printed sequence is 44 nt)]
Kd (Sen1 HD wt [1]): 13.1 nM | Kd (Sen1 HD T1623V [2]): 12.7 nM | Kd (Sen1 HD T1623E): 100 nM | Kd (Sen1 HD wt [3]): 6.4 nM | Kd (Sen1 HD T1623V [4]): 8.1 nM

Source: publication PMC8860598
